{"source": "the DeepSol protein solubility set", "data": [{"assay": "soluble on expression in E. coli; label from the status in PepcDB or PDB records", "values": [{"sequence": "MAHHHHHHMAVAYVFDGAVLKQMSLEAGHPKFTVLDTPLCSDSAVTCFGKDEFYFINGSVPNVLRHFGGRSGCTEHFLPGPAHCLLVHRQKVYCCGVDCLYVFDPLGEEVETIELGQQIKELTAADHGFVFVNDRHELYAFHFTRGVKIVGTKGPVSKLLGHHNRYAVVLLDNGDVISVNEEAEVRENLFPLKIKERFVALDTGMTLALREDELALHMNGTWLCLDGFKGRELQFLGVPLTPAEDACTICFCDFEDGDGVRLDCGHPFHRDCLAEFSTHAKSFVEKGEHIVFTYAVCPSGCGTHIRHAAAPLSAYMNDLYRAVTKDAEGRLREMENKTLEDLYYYVCCRCEKPYYGGNRWCSRTISGEPCKKPSELICSDCNDDFLCPSHNHDFVLYKCRYCCNPATHLSFGNRYMCDACNKKWEGTEPEPMECPGAEKCPLGGAHPTGGSQPLGCMLCTLFDKCDAKHFFPPQ", "soluble on expression in E. coli": "not soluble"}, {"sequence": "MAHHHHHHMEQQVIAVHYQRMEEWLSDRKAVLGKKHKKEFFRLMELAPKLEQLVRYEIPAQHKQNKRLSGLLDDAYGSIEDAAKARKNLEERQKRFFQEYGLVESQGAEEEDLEAVIEAKIASSTTSLNEALREFGRSPHLESFREAYVRAAKMYSMGMYDDNVFSLHLPWLDRVYQERFYKSKVDIHHHEQHQKQRAGERDQVAVKASTGPCNIDWGDEDTVDLVDVGETVEIKWDEEALEVAVEGAVRNCSENNKRMDDGCEEKPTDTVKGIFTIDVSNAAHRKNILTELQAFACFASERSSMDDESLAEPAAAVEVLVKKLTASTEAVFVRMKTTPTLRFSFMEEVRRLQRGIAAASMRKSNSQARVHQIQEEIERLGPQLDALLIAAGNCRDECLAELLKMFPGRTVTIVGDINKYL", "soluble on expression in E. coli": "not soluble"}, {"sequence": "MGSDKIHHHHHHMANEATQELFQVLDNTAIILQNELEISYLEAVYETGENLFQKEVLQKEELSSEKQLKLQASYESIELENFSNEEIRKGLQLALLKGMKHGIQVNHQMTPDSIGFIVAYLLEKVIQKKKNVSILDPACGTANLLTTVINQLELKGDVDVHASGVDVDDLLISLALVGADLQRQKMTLLHQDGLANLLVDPVDVVISDLPVGYYPDDENAKTFELCREEGHSFAHFLFIEQGMRYTKPGGYLFFLVPDAMFGTSDFAKVDKFIKKNGHIEGIIKLPETLFKSEQARKSILILEKADVDVKPPKEVLLANLSSLTDPSVTAPILAEIENWFKSKQ", "soluble on expression in E. coli": "soluble"}, {"sequence": "MGNKRVLITGATGFIGGYLVDEALRRQYEVWAAVRPHSDRSRLTDSRIRFVEIDYRDPSDIARLADKIAPEGESAWHLVIHNAGITKARDTSLFREINAEQTKRFLIGLQGAKHCPERFVLMSSMGSYGAPPDDCQPLSSSSVPKPTTAYGESKLLAEQYVQTFVTIPYTIIQPTGVYGPHDQDYLMAIRSVDKGFDFSTGNTPQTLTFIYAEDLASAVFIAAEHPDAAGQKYIVSDGKEYTDIEFGRMIQHLLDRKNVCHLRIPLPLVKATCYIGQKWADISGTLTPLNLDKYAIIAQRNWRCDSSPIRAIGFSPRYNLEQGLAETIRWARTTGQIRR", "soluble on expression in E. coli": "not soluble"}, {"sequence": "MLLNMMCGRQLSAISLCLAVTFAPLFNAQADEPEVIPGDSPVAVSEQGEALPQAQATAIMAGIQPLPEGAAEKARTQIESQLPAGYKPVYLNQLQLLYAARDMQPMWENRDAVKAFQQQLAEVAIAGFQPQFNKWVELLTDPGVNGMARDVVLSDAMMGYLHFIANIPVKGTRWLYSSKPYALATPPLSVINQWQLALDKGQLPTFVAGLAPQHPQYAAMHESLLALLCDTKPWPQLTGKATLRPGQWSNDVPALREILQRTGMLDGGPKITLPGDDTPTDAVVSPSAVTVETAETKPMDKQTTSRSKPAPAVRAAYDNELVEAVKRFQAWQGLGADGAIGPATRDWLNVTPAQRAGVLALNIQRLRLLPTELSTGIMVNIPAYSLVYYQNGNQVLDSRVIVGRPDRKTPMMSSALNNVVVNPPWNVPPTLARKDILPKVRNDPGYLESHGYTVMRGWNSREAIDPWQVDWSTITASNLPFRFQQAPGPRNSLGRYKFNMPSSEAIYLHDTPNHNLFKRDTRALSSGCVRVNKASDLANMLLQDAGWNDKRISDALKQGDTRYVNIRQSIPVNLYYLTAFVGADGRTQYRTDIYNYDLPARSSSQIVSKAEQLIR", "soluble on expression in E. coli": "soluble"}, {"sequence": "MHMLKARNCGWIRLLPLFMLSLPVQAELRCVANAVDIESFFSAATAEDKQQVEQAINSSVNLVPFGLSASNWKVHRGDLVVEGNIESNQKLIVLGNLTVKGNISTFSLSNPWVILGNVTATNIVADSPLLITGSINASGLVFIDSYYDNPSTIKGSINARGIFINDIIAPVVASSTNSEFMVRASDKHDTENVKKALMIINPDAYYWGLINDEDALKEIFKRSNIRMAGNVCNQMKKEALFRPKPSPELVQELQMLDEGKVAAFEGRDIATFDLAVMRTLPRLKGISANLRKQLINSNDEQTIESMARYMPDNEILELTDQQLGYQPVVLGLLDREPLSVEIMTRMSRLPDGVGPLNLALRENLPLDIVMTLAKRDWDMIIQELYKDAWLLPESIIDGYIRSDDSSIRQVGAGGQLTYNQAMQLANDSSNNVVTSLAFKLAEMKHHGQLLRMTPQESDKVAGYLYQKFENDDDLIRVLFLALPDNLQFNFVKRMEKKSPAYFCCRDMQVIHSDAALQRLLTRFNDPEGWSNLAKNQYLSTSMKQKIWQRALSHRKNNPKADSDAYETSADMILSELISHGEVDDQMLLNATALIRSDDWDFLESALISWDNLPAVVLKELQQNTPRNDIWAKFFLRQENSSRAQVDEALRVYYALDPDALAQLDVLAKQPDRIWWSTLAKSNLTFFKFGALNNRHTPPAVLAAEIDPEWWIVAMNNPRFPVDVLKARLKRDPLLALELVNPELDLVRQLALNGKTRAIREQAMRKLDELY", "soluble on expression in E. coli": "not soluble"}, {"sequence": "MTHLFALSELPLDEIHRLLDEAEAFRSGRIWRPAAPMYVANLFFEPSTRTKCSFEMAERKLGLHVIPFDPERSSVQKGETLYDTVRTLEAIGVDAVVIRHHEDAYFEALRHAVGIPIINAGDGCGHHPTQSLLDLLTIRQEFGAFTGLTVAIIGDIRHSRVARSNAEVLTRLGANVLFSGPAEWKDETNPYGTYVEVDEAIARADVVMLLRIQHERHAETMGLTKEEYHARYGLTLERARRMKSGAIILHPAPVNRGVEIASELVEAKASRIFKQMENGVYVRMAVLKRAMEGRMEHGRMAEKWHVVQ", "soluble on expression in E. coli": "soluble"}, {"sequence": "MAIDVLDVISLSLFKQQIEFEEDDRDELITLYAQAAFDYCMRWCDEPAWKVAADIPAAVKGAVLLVFADMFEHRTAQSEVQLYENAAAERMMFIHRNWRGKAESEEGS", "soluble on expression in E. coli": "soluble"}, {"sequence": "IDSGLSPSVLMASNSGRRSAPPLNLTGLPGTEKLNEKEKELCQVVRLVPGAYLEYKSALLNECHKQGGLRLAQARALIKIDVNKTRKIYDFLIREGYITKA", "soluble on expression in E. coli": "soluble"}, {"sequence": "MKFKNILFDFDDTLVDFYDAEKKAFYNLAQKYNHQPTQQDFEHFKKVNQAHWEAFQQNKLTKDEVLSQRFINYFNDYQIHVNGKEADKCFRAELAMAPVKLFDHTLEVIQQLKLNHSLYIVTNGVTETQLRRIAQTQFNEIFQDVFISEKAGFQKPMTEFFDFVFEHIGENNRNQTLIVGDSLTSDILGGKNANISTCWFNIRQKENHTSIQPDYIINDLSEMIRIVE", "soluble on expression in E. coli": "not soluble"}, {"sequence": "KVKELTILYRGSTAPTLASGLTPFHKDSLDVWTDWGVNDIPTAIQITNGGGSTVTPQLKTSAETLKQTMKLYPNAQIYVYGHSLGSMNAQYAIADLDKKDIKRISGGFFYQGPNIYSNLTPKQQDTVKAINALDRLFNFIDRKDYVAIGYGTGDPTIGHLIEVESKKAGLV", "soluble on expression in E. coli": "not soluble"}, {"sequence": "MEDELEKYKRENADLKKEIERLKNSSASNTYKVIFEASPDILIQLNADYKIIVIHIPNIEEERVNTVVGKDIFDVTPEYTHVKMKNALTSVFRDGEVVKYFSEGETMGSYRYYDNYLSPIKDAEGNITTVYFRSRDIT", "soluble on expression in E. coli": "not soluble"}, {"sequence": "VPLEHFNVPYEDSFFPAVRVKFQGSTKTLIFHGGYDSCLEEMLPFFSAFENLGYDIIAFEGPGQGMALKNGLKFIHNWERPVSALLDYFNLNEVTILGCSWGGYFCLRAAAFEKRIKAAIVYDIFYCGMDVIGMKNKEMRYELEKLLNNNEKDKINELMYSKMKADIDFNWKISKGMDNTMTYTPYDFLKAIQLHTMDGIEELIDQDVLLLAGEEDQYVPIEAMKLFEDRLVNANITKKIFTKETGGEQHCQVGRIDLAFDEIKKFLVR", "soluble on expression in E. coli": "not soluble"}, {"sequence": "MSKLLYLVAVDGGEWGERAADRAIHLAEKTHAKVKLVTVIDWPYIHPMIIEGAAAPLLDKEAEEMTVKAKVITPLVEKYNTLSLNITTELLWGDPAVILKEQVEVTNADMIFVGRQGRSSVVDTLFGSVANKLAHSVSVPIVLVP", "soluble on expression in E. coli": "not soluble"}, {"sequence": "MISNQVLQNTLEGLKEISRTEFCIIDTEGKVLATTFADFSIQPGDIQAFVESQADSQLVKGFQYFKVCDDYQLEYILVAHGDDEDTYMVGKLAAFQIQNLIVAYKERFDKDSFIKNLLLDNLLLVDIYNRAKKLHIDADVRRVVMILELQQEKDHSSMESVKSFFGGKSKDFITAVDEKSIIIVKELEDGEGYAEMDKLAHAILDTLGLNQNEETHIAYGTIVNELKEVSRSYKEARMALDVGKIFFGEKDVIAYSSLGIGRLIYQLPIPLCKMFIKEIFENKSPDDFDEETLVTIDKFFENSLNVSETSRQLYIHRNTLVYRLDKLQKSTGLDLRVFEDAITFKIALMVVRYMKYMETLEY", "soluble on expression in E. coli": "not soluble"}, {"sequence": "MGSDKIHHHHHHMERSWTINGRFLAQPLTGVQRYAFEIVRALDELIVNQPLLASRLKIELLVPRDAKVPSLRAISTRAIAIAPMHGHLWEQAALAAHVRGGLLSFCNTGPLSVRKQILCIHDVNTRTYPQSYSLPFRLLYRTLLPALGRRVAAVATVSRYSAGELVRHRICGPDKITVIPNGHEHAASWKPRHSQRTRAVAGRDTIVVIGSAIAHKNTGLIIGMAERLAAVGLRIAVVGMSDARVYRTSGRKESASNVTWLGRLSDEELAALLQDCLCLAFPSFIEGFGLPPLEAMAIGCPIVVSNRASLPEICGEAALYASPNDAEAWFDRFMRVRNMPDVRDEMIGIGRMQASNFQWKASASRYLDIMAVLDGMSKPSGGPVAVSIA", "soluble on expression in E. coli": "not soluble"}, {"sequence": "MGLFTTRQLLGYTEQKVKFRALFLELFFRRTVNFHTEEVMLDKITGKTPVAAYVSPVVEGKVLRHRGGETRVLRPGYVKPKHEFNYQQAVERLPGEDPAQLNGPAYRRLRIITDNLKQEEHAIVQVEEMQAVNAVLYGKYTMEGEQFETVEVDFGRSVGNNITQAGGTEWSAQDRDTFDPTHDLDAYCDFASGTINIAIMDGKVWRLLNGFKLFREKLDTRRGSNSQLETAVKDLGAVVSFKGYYGDLAIVVAKTSYVAEDGTEKRYLPDGTLVLGNTAAEGIRCYGAIQDAQALSEGVVASSRYPKHWLTVGDPAREFTMTQSAPLMVLPDPDEFVVVQVK", "soluble on expression in E. coli": "not soluble"}, {"sequence": "GPGSMLAQCSLFVQPRVFKGLVMRSHAPVACWAASLPWMTQQQRRRSSFASATPAAPSTDAGKGNYFHFFRIAKHPDLDVAALQKKYHNLQRLVHPDQQQVQAQQQQAEAADVAPATSSSPLPFACTSNEAKSSTDVSTYANAAYETLRAPYSRCRYLSRLVKAEEVKGNPLSAAEEEELLVEDDQRTMKAREVRPDAPMSDDFLMEMLAMNELIFAGDSSDEGVRQQWSVLRFDLEDRAVGYFKDAIKSWNDGDMGAFHHIVHEWTYVATALNNLKERMLE", "soluble on expression in E. coli": "not soluble"}]}]}
